± gives the standard deviation of the averaged measurements.
System: Saccharomyces cerevisiae
Assay: protein stability index of tFT-peptide fusion (C-terminal peptide) (PSI (0-1 scale)); higher = more stable (slower turnover)
Details: genetic background: wild type; temperature: 30 C
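Note: PSI is a weighted mean of sequencing reads over stability bins, variants kept only with over 10 reads, mCherry proximal and sfGFP distal, peptide attached via GGGS linker.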

Sequence	protein stability index
RSGVRWGGGGGG	0.711 ± 0.035
FDSLFVSLSFAI	0.661 ± 0.03
RLRCRRPKPRRC	0.682 ± 0.035
QKKKKKSKQRGP	0.743 ± 0.034
YPVLFLRSAPCK	0.584 ± 0.031
YWSRIFEAATIA	0.5436 ± 0.0024
GPVQWSLLGGSW	0.65 ± 0.012
DRPSPGLALGGP	0.7314 ± 0.0023
NGAGRGMVGGCG	0.666 ± 0.079
GLRHCLLHRTCQ	0.599 ± 0.0079
GGEGGRALGVGR	0.673 ± 0.028
TGDIKYYKDKLE	0.639 ± 0.0097
CSGCSGSCSVLA	0.646 ± 0.049
CGAALCSWEVVV	0.627 ± 0.018
PLHSRPTRPKLE	0.71 ± 0.092
VKIYSSPFFCLI	0.57 ± 0.011
SYGRECCGYASA	0.764 ± 0.081
DPAPSPTGMCTR	0.688 ± 0.016
VIPLSARGEEGD	0.7001 ± 0.0035
NSTTNVKTQHTL	0.731 ± 0.023
STSACPTPRTCS	0.6192 ± 0.001
GMFVCGVGVVGG	0.704 ± 0.19
GRRKKKNRDKMK	0.6872 ± 0.004
ACSSGGVGWGSV	0.66 ± 0.034
SLASHVLSRPTL	0.7 ± 0.047
CRGAGGRTVING	0.665 ± 0.043

Sequence	protein stability index
CRRRWSAPGGSR	0.7176 ± 0.0047
TDNVVAEKRKSK	0.701 ± 0.18
GGRCGREGGAER	0.61 ± 0.054
EGSRRQERAGRQ	0.6668 ± 0.0028
GIVRGCGGGGEE	0.6922 ± 0.0049
PAPDATQRVRSQ	0.645 ± 0.0089
CPPTPSPSTLPT	0.663 ± 0.016
CTPSSLRPLMPS	0.655 ± 0.073
ASRRSRLPWLLL	0.629 ± 0.0083
KTLVRSFSIIEG	0.657 ± 0.026
YPLLPSERDVKA	0.728 ± 0.023
GRRDARTEDVRE	0.688 ± 0.0049
KKKKKRKKEEKH	0.721 ± 0.032
PTGSGLTLNRVL	0.7187 ± 0.0062
PPSPPPPPPLHS	0.676 ± 0.042
FPPPPPPPPPSP	0.723 ± 0.028
WVRDDEYTLIFL	0.712 ± 0.035
RKMRNGRKRKKK	0.62 ± 0.025
GWVGGCGGGRGI	0.683 ± 0.0092
PGSQPPFVPPPR	0.604 ± 0.019
KSRGYSKQQIRG	0.72 ± 0.015
LDELTRRAEGCG	0.596 ± 0.008
DRKDGVSVSVGY	0.675 ± 0.05
ENVINGLITIKK	0.742 ± 0.039
LLYLFMSSRFLW	0.6369 ± 0.003
YLVSYLSLFLSF	0.504 ± 0.029

Sequence	protein stability index
TPPVPPHPRSLL	0.774 ± 0.11
CVVHLLIFGLCI	0.5963 ± 0.0046
ALRVHVPPYVPA	0.6785 ± 0.0049
CSVSACTVSLCC	0.5849 ± 0.0017
GSSVSSVWGGVG	0.629 ± 0.022
GAVARFRPCWPL	0.633 ± 0.011
RCRRTTFIELKL	0.595 ± 0.048
RAAATTELAARF	0.697 ± 0.041
RGEMGLAPTGGD	0.651 ± 0.044
SYRTCIRHSNAP	0.7655 ± 0.0074
KKKGWAKEKLKR	0.75 ± 0.051
VLGGSGFAGSPS	0.659 ± 0.014
PTARGACRAPRS	0.667 ± 0.037
PPLPSPASPRTP	0.721 ± 0.031
RFGGSGGLPGGW	0.665 ± 0.031
DGPSPAASPPRF	0.757 ± 0.095
AQPCISGLTCRY	0.729 ± 0.0096
VRSPLEHTVPFS	0.655 ± 0.057
LRAPPPPAQPFV	0.694 ± 0.012
GEWRFCLGYRRR	0.647 ± 0.018
TGAALPRPGPAL	0.659 ± 0.031
NTTTTKNRTPKR	0.6952 ± 0.0063
SNRSAPWSRFSL	0.68 ± 0.038
PLPPLPLAPSLP	0.708 ± 0.065
LPRNQPVPFPCH	0.677 ± 0.0094
VVYFARGDNVYA	0.682 ± 0.05

Sequence	protein stability index
VCPILMARHCVE	0.691 ± 0.057
KKKKKKKKKNEK	0.755 ± 0.024
CFCSLLSPSLFL	0.751 ± 0.091
RPGLWGNEVGGN	0.735 ± 0.013
DTIQFLQCYRPI	0.655 ± 0.035
IWGGGKGRAGRH	0.651 ± 0.041
PSAFPAPPLRCS	0.686 ± 0.027
GWWWGGGGAWSG	0.718 ± 0.071
GGGPWGRVGRGG	0.679 ± 0.037
KSQATELKKVNG	0.65 ± 0.037
FGESPWARVGGG	0.5749 ± 0.005
GGARESGRVEQV	0.676 ± 0.011
REWGWGALVMWG	0.638 ± 0.042
PTTPPPSVPPLY	0.715 ± 0.042
ALRLLRHTLSSS	0.703 ± 0.016
EPPRSPRSLPPL	0.661 ± 0.0073
GTALLSGGVLVI	0.689 ± 0.11
CSLRDRCAFSFG	0.6982 ± 0.0052
PPDPNCLPKQTS	0.752 ± 0.058
GVRERSCIKKAR	0.604 ± 0.058
PVSVALASGSLF	0.744 ± 0.1
LSPPYCPGALTL	0.646 ± 0.0081
PSCLGSIRSTPL	0.657 ± 0.02
LYPLTPWYVVPP	0.715 ± 0.11
GGGNGGTGCDWG	0.629 ± 0.018
GGGRGNRGEKMT	0.67 ± 0.012

Sequence	protein stability index
GGRCWMCVAVTE	0.591 ± 0.019
PQLPSRVYPSLP	0.695 ± 0.027
TRRPTPPSRASL	0.718 ± 0.049
RKVGRVGGGRLE	0.637 ± 0.018
LPSLLPESGLCF	0.604 ± 0.0086
PPGPAPPHAASH	0.6421 ± 0.0029
LPRASQFLLPVP	0.651 ± 0.065
ACSLGQSVLVCR	0.611 ± 0.02
APPARSSPPPRP	0.686 ± 0.039
LRGLLWFSRVGS	0.618 ± 0.011
SGYWWIYMSELS	0.666 ± 0.019
PPALRPSPPLSP	0.698 ± 0.065
VVRALSTQVCLP	0.645 ± 0.098
KLKIKREKKKRK	0.668 ± 0.019
SFLSMDANDLLS	0.7 ± 0.029
ERWSHNKEDDRN	0.6577 ± 0.0048
RPPPRPASPGSP	0.634 ± 0.039
SVSPPLSFPPSR	0.706 ± 0.022
EKGSIYVVQYGK	0.683 ± 0.022
PPPPPPPPAVVA	0.569 ± 0.028
QVVEANNPALSF	0.647 ± 0.02
IGCFVEFLYGVW	0.593 ± 0.023
GRRFWFSNHYNC	0.628 ± 0.091
PPSPHLPPPPAL	0.715 ± 0.016
APPSSYSSPPPS	0.692 ± 0.017
KAYGSCRSLAWF	0.712 ± 0.061

Sequence	protein stability index
PPASPPAYVTHP	0.685 ± 0.049
TPTSLRLSSLSP	0.648 ± 0.036
RNVKETSNRREL	0.627 ± 0.11
AAWSITFEVLSI	0.59 ± 0.026
VGGIGGWFCRGR	0.73 ± 0.13
TGVRTVCDVGRW	0.6648 ± 0.004
IKKNRYYKRIII	0.657 ± 0.028
NIKEKEIKRQVR	0.693 ± 0.051
PVLSPPRPFNSL	0.677 ± 0.018
GLGQHPSLMSPP	0.706 ± 0.028
TEKERSKKDELK	0.673 ± 0.064
PQYLSGFDIHNG	0.728 ± 0.052
VLGSVGGFVQRD	0.677 ± 0.036
PSIHCLSATQTW	0.672 ± 0.068
PLSLFPSSQCWS	0.771 ± 0.038
LPPDSLRPPGPP	0.761 ± 0.017
LTHLADVRSVLS	0.708 ± 0.043
APPAPPLPAIPL	0.675 ± 0.038
GRYDARNYIRGK	0.745 ± 0.14
LGMEPPWIYSCQ	0.6851 ± 0.0019
KQKKNKNNHRKK	0.761 ± 0.024
RAPPPATLPPLQ	0.661 ± 0.086
GWVHGEDMAVFG	0.7 ± 0.0049
LAPLTLLSPLPR	0.677 ± 0.034
PPPQFPRPRPTS	0.724 ± 0.014
SSPESPPTPRSL	0.678 ± 0.064

Sequence	protein stability index
PPPLPPPHPSPI	0.669 ± 0.019
KLPRPRHSDCPS	0.6505 ± 0.00069
CIPHVVPYSTGK	0.697 ± 0.014
KEQKIMSKKIEK	0.68978 ± 0.00026
PDFPPSRTPPEF	0.624 ± 0.022
FRTPASLSLPLS	0.676 ± 0.021
AGRFAPAEARVF	0.622 ± 0.056
PPKEEPRWATGD	0.693 ± 0.043
FPSCVLGGWYCG	0.7114 ± 0.0016
LIHGRFWVIRVD	0.616 ± 0.0092
SYLLPHTRFCFL	0.674 ± 0.034
LESARDICAFAD	0.6754 ± 0.005
QCNGDEKKKLYK	0.609 ± 0.022
SIVRRVRDRIGR	0.641 ± 0.038
VCTLLWLLSLVS	0.573 ± 0.017
PPRHPPPSPLVA	0.668 ± 0.011
KKKKKKKNKKKT	0.7142 ± 0.00095
VGHGGCCGWGCG	0.786 ± 0.1
GRTGRSVGTGVR	0.662 ± 0.025
PPRPPAPHLSGI	0.681 ± 0.039
AWWWGCSSIGYW	0.787 ± 0.085
EGDGLGWGGQGG	0.67 ± 0.013
ENDRKKDKERIK	0.678 ± 0.013
LSLPPHASPTPS	0.735 ± 0.055
VMGAGGRTVAEW	0.719 ± 0.019
PPPAPLALTPSL	0.71394 ± 0.00049

Sequence	protein stability index
PLFSLVSLLLPI	0.628 ± 0.036
DRRNNRLIRRNQ	0.7174 ± 0.0045
LSKSPRPARCSA	0.6091 ± 0.0024
CFPLSPSCIFLR	0.464 ± 0.077
YEGARAPAGGEK	0.689 ± 0.034
SPSPALPPRIRF	0.818 ± 0.15
LPPPFPWSPSGP	0.698 ± 0.066
VADGEAGPLFKI	0.644 ± 0.069
SSLPPSDQPPSP	0.733 ± 0.071
RGASLFPTPLAF	0.742 ± 0.043
GGGNEDCLRGGY	0.651 ± 0.056
SSSSSSALSGFE	0.704 ± 0.051
LSCRLDGIVIWF	0.64 ± 0.051
TFRRFKVQQLGN	0.561 ± 0.023
PLLPPLSPPLPS	0.7 ± 0.0078
GNDICLVGARVV	0.6696 ± 0.0059
QIRNNKPYSPSK	0.742 ± 0.0061
GLAASAFAVEEV	0.711 ± 0.099
PALPFPPLTAFH	0.683 ± 0.036
VPPPTAPVPPRP	0.749 ± 0.096

Source: the supplement of paper PMC10724198
